In US20100197582A1:

Biological target: human GHR stably expressed in human 293 cells (human) (UniProt P10912)
Experiment: cell-based or functional assay

Chain of UniProt P10912 (P10912 19-638): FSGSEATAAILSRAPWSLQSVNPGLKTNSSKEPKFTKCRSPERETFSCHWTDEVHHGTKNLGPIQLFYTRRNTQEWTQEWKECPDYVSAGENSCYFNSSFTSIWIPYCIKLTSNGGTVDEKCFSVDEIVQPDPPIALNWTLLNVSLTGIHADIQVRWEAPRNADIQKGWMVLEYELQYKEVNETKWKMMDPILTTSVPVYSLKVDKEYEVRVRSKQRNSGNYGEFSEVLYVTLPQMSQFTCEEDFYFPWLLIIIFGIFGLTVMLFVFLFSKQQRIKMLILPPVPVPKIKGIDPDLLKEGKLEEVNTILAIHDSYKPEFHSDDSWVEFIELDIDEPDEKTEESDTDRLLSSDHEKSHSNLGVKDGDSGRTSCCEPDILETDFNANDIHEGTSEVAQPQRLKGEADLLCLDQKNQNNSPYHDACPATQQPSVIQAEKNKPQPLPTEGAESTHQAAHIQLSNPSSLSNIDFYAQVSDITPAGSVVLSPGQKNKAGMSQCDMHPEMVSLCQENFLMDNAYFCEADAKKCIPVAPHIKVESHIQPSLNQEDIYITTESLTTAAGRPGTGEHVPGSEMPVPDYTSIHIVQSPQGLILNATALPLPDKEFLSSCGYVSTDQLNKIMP

LR-fusion (human GH linked to the A & B domains of the GHR extracellular domain, exGHR1-238, via a (Gly4Ser)4 linker) (from UniProt P01241 27-217; P10912 1-238)
bioactivity in GH-specific luciferase reporter assay (Stat 5 luciferase reporter), relative to GH: 10%
concentration giving maximal response, Stat 5 luciferase-reporter assay: 50 to 250 nM
